Assay results reported in patent publication CN101448941A.

Columns and labels:
[1] = molecular target: 人血小板生成素受体 (人c-Mpl) (human) (UniProt P40238); test: cell-based or functional assay
[2] = molecular target: 人血小板生成素受体 (人c-Mpl) (human) (UniProt P40238); test: flow cytometry on FM3A-hMpl cells

激动活性 (UT-7/TPO细胞增殖试验), relative to 7-10G4344uhm (of the original level) [1]: 0.1
结合活性 relative to the original 7-10G4344uhm (of the original level) [2]: 0.1
B1: 7-10G4344uhm轻链突变抗体 7-10VL_Y94F (antibody, part only; not given: heavy chain, not shown: a dimerising Fc or GST)
light: AIQLTQSPSSLSASVGDRVTITCRASQGISSALAWYQQKPGKAPKLLIYDASSLESGVPSRFSGSGSGTDFTLTISSLQPEDFATYYCQQFNSFPLTFGGGTKVEIK
